Data from the supplement of paper PMC10126150.
± gives the standard deviation of the averaged measurements.

The sequences below were run on ATP (assay: switch fluorescence ratio, 500 uM ATP over buffer (Cy3 cluster intensity, sum of 5 cycles each) (fold (ratio)); higher = stronger signal-on switching upon ATP binding; sequences stand for … in TCGTCGGCAGCGTCAGATGTGTATAAGAGACAGTTTTTTTTTTTTTTTTTTTTTTTTT…TC). Settings: aptamer strand: ATP DNA aptamer (quencher-CACCTGGGGGAGTATTGCGGAGGAAGG + anchor), 100 nM annealed; ATP concentration: 500 uM.
Outline: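 Clusters with intensities outside 100-1000 RFU were excluded. The remaining Cy3-labelled switching-strand clusters on a modified Illumina MiSeq flow-cell had been annealed to 100 nM quencher-labelled ATP aptamer and imaged in selection buffer, then after 15 min with 500 uM ATP at 22 °C, for five cycles separated by NaOH stripping and re-annealing. The fluorescence ratio, averaged per switch-domain sequence, is each cluster's summed target-cycle Cy3 intensity over its summed buffer-cycle Cy3 intensity.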
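Also: ATP exposure 15 min at 22 °C before imaging.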

First: GTGTGACAGA
Second: AAACGAACAT
The switch fluorescence ratio of the first is lower: 1.01 ± 0.014 for the first, 1.217 ± 0.011 for the second.

ATTCAATTGT and TCTTTCCGGT are within error of each other in switch fluorescence ratio: 0.974 ± 0.013 for the first, 1.14 ± 0.23 for the second.

ACTGGTAACG and TGGGGATCGT are within error of each other in switch fluorescence ratio: 1.02 ± 0.024 for the first, 0.982 ± 0.026 for the second.

TGGCGAAGAG and GACACTGGTA are within error of each other in switch fluorescence ratio: 0.999 ± 0.011 for the first, 1 ± 0.027 for the second.

Compared with CTGGACGGTG, GGGTGGCAGG is lower in switch fluorescence ratio: 1.032 ± 0.0042 for the first, 1.01 ± 0.013 for the second.

AGCCTAGGAT and TATCGGGTGT are within error of each other in switch fluorescence ratio: 1.04 ± 0.0021 for the first, 1.11 ± 0.092 for the second.

TCATGTAGGG and GGGTTTATGT are within error of each other in switch fluorescence ratio: 0.989 ± 0.015 for the first, 0.984 ± 0.029 for the second.

Going from GGGAGAGGGA to ACGGAAAACG, the switch fluorescence ratio rises from 0.978 ± 0.021 to 1.023 ± 0.0093.

ATTCGGGGTG and CTAACGCCTT are within error of each other in switch fluorescence ratio: 1.05 ± 0.11 for the first, 1.13 ± 0.042 for the second.

ATGTTGGGCG and TGCAGGGGCT are within error of each other in switch fluorescence ratio: 0.996 ± 0.052 for the first, 1.15 ± 0.22 for the second.

TGGGGTGGGG and GTGTGCAGGG are within error of each other in switch fluorescence ratio: 1.05 ± 0.09 for the first, 0.945 ± 0.031 for the second.

First: ATAAGGTTCC
Second: TCCTGTTCCT
The switch fluorescence ratio of the first is higher: 1.091 ± 0.005 for the first, 1.02 ± 0.062 for the second.

TGTTTTTAGG and ATCGACCGGC are within error of each other in switch fluorescence ratio: 0.989 ± 0.023 for the first, 1.04 ± 0.071 for the second.

GAGAGCAGGG and GGGACATGTA are within error of each other in switch fluorescence ratio: 0.995 ± 0.026 for the first, 0.98 ± 0.022 for the second.

Going from ATGGAAAGGT to GAATAGGGTA, the switch fluorescence ratio falls from 1.009 ± 0.0074 to 0.98 ± 0.018.

TATGCCCAGC and GATGTACGCA are within error of each other in switch fluorescence ratio: 1 ± 0.029 for the first, 0.973 ± 0.075 for the second.

GGGGCATTGG and AGAGCGCGCC are within error of each other in switch fluorescence ratio: 0.99 ± 0.011 for the first, 1.02 ± 0.05 for the second.

TCTGGTGATA and CTATTCGGCC are within error of each other in switch fluorescence ratio: 1.01 ± 0.017 for the first, 0.986 ± 0.02 for the second.

Compared with TCGCCGGGCG, TGGGTCGCCG is lower in switch fluorescence ratio: 0.993 ± 0.0075 for the first, 0.964 ± 0.012 for the second.

TCAGGTAGCG and AGTGGCCGGG are within error of each other in switch fluorescence ratio: 1.004 ± 0.0061 for the first, 1.01 ± 0.027 for the second.

TTTGATGCCG and AATGTGAGGG are within error of each other in switch fluorescence ratio: 0.973 ± 0.03 for the first, 0.9772 ± 0.0092 for the second.

TTTTTGTTCG and TAAATGTGGG are within error of each other in switch fluorescence ratio: 0.998 ± 0.015 for the first, 1 ± 0.069 for the second.

First: ATAGGAGGGA
Second: ATGGTTGTTG
The switch fluorescence ratio of the first is higher: 1.01 ± 0.017 for the first, 0.9628 ± 0.0034 for the second.

ATAGAGAAGC and TAATTTTTAG are within error of each other in switch fluorescence ratio: 1.03 ± 0.025 for the first, 1.01 ± 0.025 for the second.

TCTATTCTCG and AGTCCCGCCT are within error of each other in switch fluorescence ratio: 1.013 ± 0.0056 for the first, 1.12 ± 0.14 for the second.

First: TTGGTGTTCA
Second: CGTCCAGTTC
The switch fluorescence ratio of the first is lower: 0.996 ± 0.013 for the first, 1.08 ± 0.023 for the second.

Going from AACAAACCGT to GGGTTAGATT, the switch fluorescence ratio falls from 1.1 ± 0.017 to 0.993 ± 0.06.

Compared with TAATGGGTGC, CACGAGGGAG is lower in switch fluorescence ratio: 1.06 ± 0.038 for the first, 0.982 ± 0.022 for the second.

GGGGGCCCGG and TTGGCAGATG are within error of each other in switch fluorescence ratio: 1.03 ± 0.045 for the first, 1 ± 0.043 for the second.

CAAAAGCGAG and TGGGGGGGAT are within error of each other in switch fluorescence ratio: 1.014 ± 0.0055 for the first, 0.993 ± 0.026 for the second.

Compared with GAAACGTAAT, TTTGGGGTGG is lower in switch fluorescence ratio: 1.19 ± 0.037 for the first, 0.974 ± 0.031 for the second.

GTGAGGGTGG and GGGGGGGGTG are within error of each other in switch fluorescence ratio: 0.9695 ± 0.0093 for the first, 1.02 ± 0.068 for the second.

First: ACGTATCTCT
Second: CTTCTAGCTT
The switch fluorescence ratio of the first is higher: 1.17 ± 0.11 for the first, 0.97 ± 0.058 for the second.

TTTCGACTGG and TCGGGGCTAG are within error of each other in switch fluorescence ratio: 0.996 ± 0.02 for the first, 0.989 ± 0.025 for the second.

Going from TTCCGGCTAT to TTGGTAGTGG, the switch fluorescence ratio falls from 1.15 ± 0.064 to 0.977 ± 0.028.

AGATACTTTC and TTAGAGGTAA are within error of each other in switch fluorescence ratio: 1.03 ± 0.024 for the first, 1.01 ± 0.019 for the second.

TGGGGAGTTA and AATATTGTGG are within error of each other in switch fluorescence ratio: 0.992 ± 0.021 for the first, 0.974 ± 0.019 for the second.

First: TTGACCCGGT
Second: CGGGCTATTC
The switch fluorescence ratio of the first is lower: 1.06 ± 0.085 for the first, 1.22 ± 0.034 for the second.

CCAGCTTTGC and GTTCAACTCA are within error of each other in switch fluorescence ratio: 1.02 ± 0.057 for the first, 0.993 ± 0.012 for the second.

GGGTTAGACG and AAAGTACGCG are within error of each other in switch fluorescence ratio: 1.01 ± 0.011 for the first, 0.984 ± 0.046 for the second.

GTTGGGAAGA and AGGATTTTTT are within error of each other in switch fluorescence ratio: 1.01 ± 0.034 for the first, 1.003 ± 0.0094 for the second.

GTTGGGAGCA and TGCTTAAGTT are within error of each other in switch fluorescence ratio: 1.004 ± 0.0072 for the first, 0.999 ± 0.021 for the second.

TCAATTCGGC and CATATAATTG are within error of each other in switch fluorescence ratio: 0.991 ± 0.025 for the first, 0.976 ± 0.014 for the second.

TTTACCGGTT and ATGCGTGGTA are within error of each other in switch fluorescence ratio: 0.974 ± 0.07 for the first, 1.02 ± 0.041 for the second.

AGGAGGGGA and CTGGTTATAG are within error of each other in switch fluorescence ratio: 1.03 ± 0.02 for the first, 0.989 ± 0.028 for the second.

AAAATAGCCG and ACGGGGTAGT are within error of each other in switch fluorescence ratio: 1.04 ± 0.054 for the first, 1.02 ± 0.024 for the second.

Going from CGGTTAAGAT to GTGGTTCTGA, the switch fluorescence ratio rises from 0.993 ± 0.012 to 1.03 ± 0.024.

AGCCGCCCCG and TACTGAGACA are within error of each other in switch fluorescence ratio: 1.1 ± 0.1 for the first, 1.074 ± 0.0066 for the second.

TTGTGGTCGT and CGTATGAAAT are within error of each other in switch fluorescence ratio: 0.9859 ± 0.0074 for the first, 0.9985 ± 0.0089 for the second.

TATTCAATGG and GCATCACGTT are within error of each other in switch fluorescence ratio: 1.02 ± 0.074 for the first, 1 ± 0.029 for the second.

First: AGTGGTGATC
Second: ATGTAACGTT
The switch fluorescence ratio of the first is higher: 1.04 ± 0.018 for the first, 1.006 ± 0.0088 for the second.

Going from AAATTGGGGA to TCTGCCTAGG, the switch fluorescence ratio rises from 0.986 ± 0.014 to 1.13 ± 0.075.

TTGCGGGAAC and ATAGATCTGA are within error of each other in switch fluorescence ratio: 1.07 ± 0.063 for the first, 1.03 ± 0.084 for the second.

First: GGGTCCTTTT
Second: AGACGTTATT
The switch fluorescence ratio of the first is lower: 1 ± 0.021 for the first, 1.15 ± 0.1 for the second.

GTTTACAAGT and TGATAATTTT are within error of each other in switch fluorescence ratio: 0.992 ± 0.027 for the first, 1 ± 0.039 for the second.

AATTGGTAGG and TTAGCCACTT are within error of each other in switch fluorescence ratio: 1 ± 0.072 for the first, 1.06 ± 0.066 for the second.

TGGTTGGATC and TTAAATAACT are within error of each other in switch fluorescence ratio: 0.984 ± 0.019 for the first, 1.12 ± 0.16 for the second.

TCGGTTGTCC and AGCTCGGGGG are within error of each other in switch fluorescence ratio: 0.978 ± 0.018 for the first, 1 ± 0.034 for the second.

CATTTTTACG and GCACTGGT are within error of each other in switch fluorescence ratio: 1.01 ± 0.026 for the first, 1.04 ± 0.062 for the second.

First: AAATGCCACG
Second: TCTATATTAG
The switch fluorescence ratio of the first is higher: 1.06 ± 0.017 for the first, 1.02 ± 0.023 for the second.

Compared with GCGATCAATT, CAAAAGTGGG is lower in switch fluorescence ratio: 1.14 ± 0.051 for the first, 0.9928 ± 0.0018 for the second.

TGAGGTTTGG and GAGATGCTGC are within error of each other in switch fluorescence ratio: 1.02 ± 0.028 for the first, 1.05 ± 0.017 for the second.

GTTTTGTGCA and TCGCTATAGC are within error of each other in switch fluorescence ratio: 0.9978 ± 0.0052 for the first, 1.02 ± 0.067 for the second.

TGGGCTTATC and ATCACGGGGA are the same in switch fluorescence ratio: 1.012 ± 0.0097 for the first, 1.01 ± 0.032 for the second.

GGAGCGAAGT and TTGAATTGGT are within error of each other in switch fluorescence ratio: 1.16 ± 0.26 for the first, 0.995 ± 0.036 for the second.

AGGGAAGCGG and CGGAACGTGC are within error of each other in switch fluorescence ratio: 0.982 ± 0.047 for the first, 1.04 ± 0.045 for the second.

Going from TAGGGGTTCA to CATATTATGA, the switch fluorescence ratio falls from 1.013 ± 0.002 to 0.987 ± 0.012.

AAGTTATGGG and CAATGTAAGA are within error of each other in switch fluorescence ratio: 1 ± 0.023 for the first, 0.989 ± 0.012 for the second.

Compared with AGGCCAGTTG, ATGGGCTAGG is lower in switch fluorescence ratio: 1.02 ± 0.012 for the first, 0.9702 ± 0.0058 for the second.

TGAGGTCCCA and GGGATAGCAC are within error of each other in switch fluorescence ratio: 1.01 ± 0.014 for the first, 1.09 ± 0.13 for the second.

First: ATTTTAAAAT
Second: TACGGTACGG
The switch fluorescence ratio of the first is lower: 0.977 ± 0.013 for the first, 1.18 ± 0.04 for the second.

CTGTAAGGTC and ACGGGGCTGG are within error of each other in switch fluorescence ratio: 1.01 ± 0.019 for the first, 1.02 ± 0.048 for the second.

TGGGGAATAT and GGTGGATCTT are within error of each other in switch fluorescence ratio: 1.18 ± 0.38 for the first, 1.03 ± 0.015 for the second.

AAAAAACGGT and GGTTTTTTTA are within error of each other in switch fluorescence ratio: 1.02 ± 0.025 for the first, 0.983 ± 0.032 for the second.

First: TTATAACGTA
Second: TTTGGGGACT
The switch fluorescence ratio of the first is higher: 1.07 ± 0.044 for the first, 0.984 ± 0.011 for the second.

TAACCGGGGG and GGATTATTAG are within error of each other in switch fluorescence ratio: 1.67 ± 1.2 for the first, 0.965 ± 0.016 for the second.

AAGATGACTA and GGTACTTCTA are within error of each other in switch fluorescence ratio: 0.986 ± 0.042 for the first, 1.01 ± 0.018 for the second.

ATTATTGGTT and TTGATTTTGT are within error of each other in switch fluorescence ratio: 1.02 ± 0.029 for the first, 1.01 ± 0.019 for the second.

Sequence TAGAAATTCG has a switch fluorescence ratio of 1.28 ± 0.5.
